Results reported in patent US20240209100A1 (DIAGONAL THERAPEUTICS, published 2024).

T1: IL-18 receptor (IL-18Rα/IL-18Rβ) overexpressed on HEK-Blue IL-18 cells (Homo sapiens (Human), UniProt Q13478 19-541; O95256 20-599)
T1 sequence 1: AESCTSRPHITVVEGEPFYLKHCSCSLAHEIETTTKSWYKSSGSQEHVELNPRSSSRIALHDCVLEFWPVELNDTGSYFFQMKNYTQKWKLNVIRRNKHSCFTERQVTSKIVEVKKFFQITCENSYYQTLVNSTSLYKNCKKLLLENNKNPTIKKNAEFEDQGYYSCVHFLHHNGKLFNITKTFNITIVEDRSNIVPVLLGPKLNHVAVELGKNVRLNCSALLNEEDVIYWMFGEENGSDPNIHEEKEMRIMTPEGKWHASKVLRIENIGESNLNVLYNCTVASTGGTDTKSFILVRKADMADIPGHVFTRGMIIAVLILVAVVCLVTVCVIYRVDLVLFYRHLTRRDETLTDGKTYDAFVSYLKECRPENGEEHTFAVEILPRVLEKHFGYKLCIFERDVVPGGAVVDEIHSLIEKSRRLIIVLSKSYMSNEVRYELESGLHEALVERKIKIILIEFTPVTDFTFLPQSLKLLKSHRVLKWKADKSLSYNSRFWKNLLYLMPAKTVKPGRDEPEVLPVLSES
T1 sequence 2: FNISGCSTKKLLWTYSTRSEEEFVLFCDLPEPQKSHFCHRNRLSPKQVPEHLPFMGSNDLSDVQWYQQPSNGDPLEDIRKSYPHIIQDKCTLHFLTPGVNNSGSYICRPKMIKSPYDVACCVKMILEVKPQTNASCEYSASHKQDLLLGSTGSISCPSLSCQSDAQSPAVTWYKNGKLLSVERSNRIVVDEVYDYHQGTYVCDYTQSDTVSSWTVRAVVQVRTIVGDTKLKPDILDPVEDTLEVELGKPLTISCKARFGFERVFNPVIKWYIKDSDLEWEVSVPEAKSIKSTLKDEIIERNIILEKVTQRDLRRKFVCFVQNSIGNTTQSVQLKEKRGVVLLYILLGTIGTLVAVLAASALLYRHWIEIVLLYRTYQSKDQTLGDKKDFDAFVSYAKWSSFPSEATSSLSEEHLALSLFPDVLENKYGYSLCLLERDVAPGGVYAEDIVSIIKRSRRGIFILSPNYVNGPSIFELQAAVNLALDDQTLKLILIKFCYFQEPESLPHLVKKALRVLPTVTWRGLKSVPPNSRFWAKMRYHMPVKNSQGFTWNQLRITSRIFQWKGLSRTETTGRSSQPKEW

B1: DGL171 (bispecific antibody)
heavy 1: EVQLVESGGGLVQAGGSLRLSCAASGSISSRDTMGWYRQAPGKQREMVAVISSSGNTNYADSVLGRFTISRDNAKNTVDLQMNSLKPEDTAIYKCYAHRTYGVDYWGKGTLVTVSSDKGPSVFPLAPEPKSSQVQLVESGGGLVQAGGSLRLSCAASGRTFSSYTMGWFRQAPGKEREFVAAISWSAGRTYYADSVKGRFTISRDNAKNTVYLQMNSLKPEDTAVYFCAAEEAPDWAPIDCSGYGCLSLYDYWGQGTQVTVSSDKTHTCPPCPAPEAAGGPSVFLFPPKPKDTLMISRTPEVTCVVVDVSHEDPEVKFNWYVDGVEVHNAKTKPREEQYNSTYRVVSVLTVLHQDWLNGKEYKCKVSNKALPAPIEKTISKAKGQPREPQVCTLPPSRDELTKNQVSLSCAVKGFYPSDIAVEWESNGQPENNYKTTPPVLDSDGSFFLVSKLTVDKSRWQQGNVFSCSVMHEALHNHYTQKSLSLSPG
heavy 2: not shown
B2: DGL173 (bispecific antibody)
heavy 1: QVQLVESGGGLVQAGGSLRLSCVASGTFFQIHVMGWYRQAPGKQRELVAFIINNGGTRYADSVKGRFTISRDYAKNTVYLQMNSLKPEDTAVYYCNTEGTYRGRYSTDNWGQGTQVTVSSGGGSQVQLVESGGGLVQAGGSLRLSCAASGRTFSKHAMGWFRQAPGKEREFVAAIDWSGGSTYYADSVKGRFTISRDNAKNTVYLQMDSLKPEDTAVYYCAADSYTDYAQLWLPELESEYDYWGQGTQVTVSSDKTHTCPPCPAPEAAGGPSVFLFPPKPKDTLMISRTPEVTCVVVDVSHEDPEVKFNWYVDGVEVHNAKTKPREEQYNSTYRVVSVLTVLHQDWLNGKEYKCKVSNKALPAPIEKTISKAKGQPREPQVCTLPPSRDELTKNQVSLSCAVKGFYPSDIAVEWESNGQPENNYKTTPPVLDSDGSFFLVSKLTVDKSRWQQGNVFSCSVMHEALHNHYTQKSLSLSPG
heavy 2: not shown
B3: DGL175 (bispecific antibody)
heavy 1: QLQLVESGGGLVQAGGSLRLSCAASRSITFSHNVMGWYRQAPGKQRELVASIGSGGSTNYVDSVKGRATISRDNAKKTVYLQMNSLKPEDTAVYYCGVVVGVYRGSLGQGTQVTVSSGGGSQVQLQESGGGLVQAGGSLRLSCQASGSIATINGMRWWRQAPGKERELVATINSGGSSNYADSVKGRFTISRDNASHTVSLQMNSLKPEDTAVYYCNLYVYSQFPPFSVDDYWGQGARVTVSSDKTHTCPPCPAPEAAGGPSVFLFPPKPKDTLMISRTPEVTCVVVDVSHEDPEVKFNWYVDGVEVHNAKTKPREEQYNSTYRVVSVLTVLHQDWLNGKEYKCKVSNKALPAPIEKTISKAKGQPREPQVCTLPPSRDELTKNQVSLSCAVKGFYPSDIAVEWESNGQPENNYKTTPPVLDSDGSFFLVSKLTVDKSRWQQGNVFSCSVMHEALHNHYTQKSLSLSPG
heavy 2: not shown
B4: DGL174 (bispecific antibody)
heavy 1: EVQLVESGGGLVQAGGSLRLSCAASGSISSRDTMGWYRQAPGKQREMVAVISSSGNTNYADSVLGRFTISRDNAKNTVDLQMNSLKPEDTAIYKCYAHRTYGVDYWGKGTLVTVSSGGGSQVQLVESGGGLVQAGGSLRLSCAASGRTFSSYTMGWFRQAPGKEREFVAAISWSAGRTYYADSVKGRFTISRDNAKNTVYLQMNSLKPEDTAVYFCAAEEAPDWAPIDCSGYGCLSLYDYWGQGTQVTVSSDKTHTCPPCPAPEAAGGPSVFLFPPKPKDTLMISRTPEVTCVVVDVSHEDPEVKFNWYVDGVEVHNAKTKPREEQYNSTYRVVSVLTVLHQDWLNGKEYKCKVSNKALPAPIEKTISKAKGQPREPQVCTLPPSRDELTKNQVSLSCAVKGFYPSDIAVEWESNGQPENNYKTTPPVLDSDGSFFLVSKLTVDKSRWQQGNVFSCSVMHEALHNHYTQKSLSLSPG
heavy 2: not shown
B5: DGL170 (bispecific antibody)
heavy 1: QVQLVESGGGLVQAGGSLRLSCVASGTFFQIHVMGWYRQAPGKQRELVAFIINNGGTRYADSVKGRFTISRDYAKNTVYLQMNSLKPEDTAVYYCNTEGTYRGRYSTDNWGQGTQVTVSSDKGPSVFPLAPEPKSSQVQLVESGGGLVQAGGSLRLSCAASGRTFSKHAMGWFRQAPGKEREFVAAIDWSGGSTYYADSVKGRFTISRDNAKNTVYLQMDSLKPEDTAVYYCAADSYTDYAQLWLPELESEYDYWGQGTQVTVSSDKTHTCPPCPAPEAAGGPSVFLFPPKPKDTLMISRTPEVTCVVVDVSHEDPEVKFNWYVDGVEVHNAKTKPREEQYNSTYRVVSVLTVLHQDWLNGKEYKCKVSNKALPAPIEKTISKAKGQPREPQVCTLPPSRDELTKNQVSLSCAVKGFYPSDIAVEWESNGQPENNYKTTPPVLDSDGSFFLVSKLTVDKSRWQQGNVFSCSVMHEALHNHYTQKSLSLSPG
heavy 2: not shown
B6: DGL172 (bispecific antibody)
heavy 1: QLQLVESGGGLVQAGGSLRLSCAASRSITFSHNVMGWYRQAPGKQRELVASIGSGGSTNYVDSVKGRATISRDNAKKTVYLQMNSLKPEDTAVYYCGVVVGVYRGSLGQGTQVTVSSDKGPSVFPLAPEPKSSQVQLQESGGGLVQAGGSLRLSCQASGSIATINGMRWWRQAPGKERELVATINSGGSSNYADSVKGRFTISRDNASHTVSLQMNSLKPEDTAVYYCNLYVYSQFPPFSVDDYWGQGARVTVSSDKTHTCPPCPAPEAAGGPSVFLFPPKPKDTLMISRTPEVTCVVVDVSHEDPEVKFNWYVDGVEVHNAKTKPREEQYNSTYRVVSVLTVLHQDWLNGKEYKCKVSNKALPAPIEKTISKAKGQPREPQVCTLPPSRDELTKNQVSLSCAVKGFYPSDIAVEWESNGQPENNYKTTPPVLDSDGSFFLVSKLTVDKSRWQQGNVFSCSVMHEALHNHYTQKSLSLSPG
heavy 2: not shown

Biological target: T1, IL-18 receptor (IL-18Rα/IL-18Rβ) …
Experiment: cell-based or functional assay

Row | Binder | HEK-Blue IL-18: Abs 405 [Abs] | HEK-Blue IL-18: Fold over Background [fold]
1 | B1 | 0.53 | 4.3
2 | B2 | 0.59 | 4.9
3 | B3 | 1.1 | 9.1
4 | B4 | 1.14 | 9.5
5 | B5 | 0.23 | 1.9
6 | B6 | 1.02 | 8.5
